This passage reports affinity results from patent US20260152577A1.

The target in the assay is human CD3 on T cells (human) (UniProt P07766). The assay is described as follows: FACS on Jurkat cells.

Take OKT3-hIgG1 (antibody): the affinity amounted to 0.27 nM.
